Laboratory results as given in patent US20250215467A1, “L-THREONINE TRANSALDOLASES AND USES THEREOF” (University of Delaware, priority 2022, published 2025).

Assays:
[1] = TTA-ADH coupled assay, substrate scope of TTAs on aromatic aldehydes; format: biochemical
Experimental: High-throughput screening of purified TTAs was performed with a TTA-ADH coupled assay using purified TTA and commercially available alcohol dehydrogenase from S. cerevisiae purchased from MilliporeSigma. Aldehyde stocks were prepared in 50-100 mM solutions in DMSO or acetonitrile. Reaction mixtures were prepared in a 96-well plate with 100 μL of 100 mM phosphate buffer pH 7.5, 0.5 mM NADH, 0.4 mM PLP, 15 mM MgCl2, and 100 mM L-Thr with the addition of 0.25 mM to 1 mM aldehyde depending on the background absorbance at 340 nm (Table 4), 10 U ScADH, and 0.25 μM purified TTA unless otherwise specified. Reactions were initiated with the addition of enzyme. […] The following controls were included for every assay: reaction mixture without aldehyde, without TTA, and without enzyme (TTA or ADH). Rates were calculated by identifying the linear region at the beginning of the kinetic run and converting the depletion in absorbance to the depletion of mM NADH using an NADH standard curve.
We specifically selected substrates with ring substituents with different electron withdrawing properties (1, 3, 6, 7, 8), substituent size (12), and aldehyde chain length (15) to compare the activity of the putative TTAs to ObiH. We were also encouraged by the activity of PbTTA and KaTTA on vanillin and protocatechualdehyde which are substrates that would form products like commercially available therapeutic, Droxidopa (FIG. 18).
To explore the possibility that DbTTA and TmTTA are TTAs active on other related aldehydes, we sought to examine their activity with L-Thr and aldehyde substrates with different ring substituent position (2), bulkier, hydrophobic chemistry (10), and aldehyde chain length (14) using the TTA-ADH coupled assay.

E. coli RARE strain = experiment: β-OH-nsAA biosynthesis during aerobic fermentation in E. coli RARE strain; format: cell-based, Escherichia coli; conditions: 1 mM 3, 20 h
Experimental: (§1) Metabolites of interest were quantified via high-performance liquid chromatography (HPLC) using an Agilent 1260 Infinity model equipped with a Zorbax Eclipse Plus-C18 column. To quantify aldehyde and β-OH-nsAAs, an initial mobile phase of solvent A/B=95/5 was used (solvent A, water+0.1% TFA; solvent B, acetonitrile+0.1% TFA) and maintained for 5 min. A gradient elution was performed (A/B) as follows: gradient from 95/5 to 50/50 for 5-12 min, gradient from 50/50 to 0/100 for 12-13 min, and gradient from 0/100 to 95/5 for 13-14 min. A flow rate of 1 mL min-1 was maintained, and absorption was monitored at 210, 250 and 280 nm.
(§2) For screening TTA activity in aerobically growing cells, we inoculated strains transformed with plasmids expressing TTAs into 300 μL volumes of MOPS EZ Rich media in a 96-deep-well plate with appropriate antibiotic added to maintain plasmids (50 μg/mL kanamycin (Kan)). Cultures were incubated at 37° C. with shaking at 1000 RPM and an orbital radius of 1.25 mm until an OD600 of 0.5-0.8 was reached. OD600 was measured using a SPECTRAMAX® i3× plate reader. At this point, the TTAs were induced with addition of 0.2 nM aTc for TTA expression. Then, 2 h following induction of the TTAs, 1 mM aldehyde was added to the culture. Cultures were then incubated over 20 h at 30° C. with metabolite concentration measured via supernatant sampling and submission to HPLC. […]

wild-type E. coli MG1655 = experiment: β-OH-nsAA biosynthesis during aerobic fermentation in wild-type E. coli MG1655; format: cell-based, Escherichia coli; conditions: SUMO-tagged construct, 1 mM 3, 20 h
Experimental: as §1, §2

B1: PbTTA: L-threonine transaldolase, SEQ ID NO: 16, Parachlamydiales bacterium, MBN2478762.1 (protein, listed as Parachlamydiales bacterium)
chain: METSLKDFETILHLINKEEIDSNDTIHMTANENIMSKLSKHYLKSTLSYRYHVGMFDDQKNLTVSRSCLIKNSLMLRCLSPIFLLEQQAREYVKKMFFAEYADFRPLSGMHTVFCILSTLTKPNDRVYVFTTESVGHAATVSLLKSLGRKVSFIPFCEKKLDIDLEKLSKQILIEKPNAILFDFGTPFYPLPIREIREIVGNDVKMIYDASHVLGLIAGGQFQNPLLEGCDVLIGNTHKTFPGPQKGMILYKNKSLGKEIATEIFKSAISAQHTHHAIALYVTIIEMYIHGKEYANQIIKNNHALSQALINEGFKIFKRKNQFSLSHMIAITGDFPIDHHVACADLHNSNISTNSRILYDFPAVRIGVQEVTRKGMKEKDMVQLAKFFKEIILDRKNISSKIKEFNNKFNSIEYSLDEIYEKLF
In the case of B1, the “activity on vanillin and protocatechualdehyde” value ([1]; TTA-ADH coupled assay) is reported as “activity”, the “activity on a set of aromatic aldehyde substrates (substrate scope)” value ([1]; substrates 1, 3, 6, 7, 8, 12, 15) is reported as “high activity on a diverse array of substrates” and the β-OH-nsAA titer (E. coli RARE strain; 100 mM L-Thr) is reported as 0.61 ± 0.04 mM. For the same molecule, the β-OH-nsAA titer (E. coli RARE strain; natural L-Thr levels) was 0.13 ± 0.01 mM, the β-OH-nsAA titer (wild-type E. coli MG1655; MG1655, 100 mM L-Thr supplemented) was 0.47 ± 0.04 mM and the β-OH-nsAA titer (wild-type E. coli MG1655; MG1655, physiological levels of L-Thr) was 0.09 ± 0.01 mM.
